{"source": "paper PMC12893000", "about": "“Structural basis of quinone sensing by the MarR-type repressor MhqR in Staphylococcus aureus” (mBio, 2025)", "key": {"[1]": {"system": "T1, SaMhqR A63E A63E (Staphylococcus aureus COL), ORF:0a4449b0", "T1 sequence": "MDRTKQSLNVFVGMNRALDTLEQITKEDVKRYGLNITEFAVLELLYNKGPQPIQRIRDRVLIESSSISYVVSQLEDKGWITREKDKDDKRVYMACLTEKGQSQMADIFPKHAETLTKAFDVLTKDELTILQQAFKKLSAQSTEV", "assay": "EMSA", "details": "EMSA: 15 ng probe, 0.01-1.0 uM protein, 60 min; for MHQ tests protein diluted to 0.6 uM in 10 mM Tris-HCl pH 7.5 and treated with 0.5-100 mM MHQ for 30 min at …"}, "[2]": {"system": "T2, SaMhqR D88A D88A (Staphylococcus aureus COL), ORF:0a4449b0", "T2 sequence": "T1 sequence with E63A, D88A", "assay": "EMSA", "details": "EMSA: 15 ng probe, 0.01-1.0 uM protein, 60 min; for MHQ tests protein diluted to 0.6 uM in 10 mM Tris-HCl pH 7.5 and treated with 0.5-100 mM MHQ for 30 min at …"}, "[3]": {"system": "T3, SaMhqR E38A E38A (Staphylococcus aureus COL), ORF:0a4449b0", "T3 sequence": "T1 sequence with E38A, E63A", "assay": "EMSA", "details": "EMSA: 15 ng probe, 0.01-1.0 uM protein, 60 min; for MHQ tests protein diluted to 0.6 uM in 10 mM Tris-HCl pH 7.5 and treated with 0.5-100 mM MHQ for 30 min at …"}, "[4]": {"system": "T4, SaMhqR E43A E43A (Staphylococcus aureus COL), ORF:0a4449b0", "T4 sequence": "T1 sequence with E43A, E63A", "assay": "EMSA", "details": "EMSA: 15 ng probe, 0.01-1.0 uM protein, 60 min; for MHQ tests protein diluted to 0.6 uM in 10 mM Tris-HCl pH 7.5 and treated with 0.5-100 mM MHQ for 30 min at …"}, "[5]": {"system": "T5, SaMhqR E43A,H111A E43A;H111A (Staphylococcus aureus COL), ORF:0a4449b0", "T5 sequence": "T1 sequence with E43A, E63A, H111A", "assay": "EMSA", "details": "EMSA: 15 ng probe, 0.01-1.0 uM protein, 60 min; for MHQ tests protein diluted to 0.6 uM in 10 mM Tris-HCl pH 7.5 and treated with 0.5-100 mM MHQ for 30 min at …"}, "[6]": {"system": "T6, SaMhqR F11A F11A (Staphylococcus aureus COL), ORF:0a4449b0", "T6 sequence": "T1 sequence with F11A, E63A", "assay": "EMSA", "details": "EMSA: 15 ng probe, 0.01-1.0 uM protein, 60 min; for MHQ tests protein diluted to 0.6 uM in 10 mM Tris-HCl pH 7.5 and treated with 0.5-100 mM MHQ for 30 min at …"}, "[7]": {"system": "T7, SaMhqR F39A F39A (Staphylococcus aureus COL), ORF:0a4449b0", "T7 sequence": "T1 sequence with F39A, E63A", "assay": "EMSA", "details": "EMSA: 15 ng probe, 0.01-1.0 uM protein, 60 min; for MHQ tests protein diluted to 0.6 uM in 10 mM Tris-HCl pH 7.5 and treated with 0.5-100 mM MHQ for 30 min at …"}, "[8]": {"system": "T8, SaMhqR H111A H111A (Staphylococcus aureus COL), ORF:0a4449b0", "T8 sequence": "T1 sequence with E63A, H111A", "assay": "EMSA", "details": "EMSA: 15 ng probe, 0.01-1.0 uM protein, 60 min; for MHQ tests protein diluted to 0.6 uM in 10 mM Tris-HCl pH 7.5 and treated with 0.5-100 mM MHQ for 30 min at …"}, "[9]": {"system": "T9, SaMhqR K89A K89A (Staphylococcus aureus COL), ORF:0a4449b0", "T9 sequence": "T1 sequence with E63A, K89A", "assay": "EMSA", "details": "EMSA: 15 ng probe, 0.01-1.0 uM protein, 60 min; for MHQ tests protein diluted to 0.6 uM in 10 mM Tris-HCl pH 7.5 and treated with 0.5-100 mM MHQ for 30 min at …"}, "[10]": {"system": "T10, SaMhqR Q54A Q54A (Staphylococcus aureus COL), ORF:0a4449b0", "T10 sequence": "T1 sequence with Q54A, E63A", "assay": "EMSA", "details": "EMSA: 15 ng probe, 0.01-1.0 uM protein, 60 min; for MHQ tests protein diluted to 0.6 uM in 10 mM Tris-HCl pH 7.5 and treated with 0.5-100 mM MHQ for 30 min at …"}, "[11]": {"system": "T11, SaMhqR Q73A Q73A (Staphylococcus aureus COL), ORF:0a4449b0", "T11 sequence": "T1 sequence with E63A, Q73A", "assay": "EMSA", "details": "EMSA: 15 ng probe, 0.01-1.0 uM protein, 60 min; for MHQ tests protein diluted to 0.6 uM in 10 mM Tris-HCl pH 7.5 and treated with 0.5-100 mM MHQ for 30 min at …"}, "[12]": {"system": "T12, SaMhqR R90A R90A (Staphylococcus aureus COL), ORF:0a4449b0", "T12 sequence": "T1 sequence with E63A, R90A", "assay": "EMSA", "details": "EMSA: 15 ng probe, 0.01-1.0 uM protein, 60 min; for MHQ tests protein diluted to 0.6 uM in 10 mM Tris-HCl pH 7.5 and treated with 0.5-100 mM MHQ for 30 min at …"}, "[13]": {"system": "T13, SaMhqR S64A S64A (Staphylococcus aureus COL), ORF:0a4449b0", "T13 sequence": "T1 sequence with E63A, S64A", "assay": "EMSA", "details": "EMSA: 15 ng probe, 0.01-1.0 uM protein, 60 min; for MHQ tests protein diluted to 0.6 uM in 10 mM Tris-HCl pH 7.5 and treated with 0.5-100 mM MHQ for 30 min at …"}, "[14]": {"system": "T14, SaMhqR S65A S65A (Staphylococcus aureus COL), ORF:0a4449b0", "T14 sequence": "T1 sequence with E63A, S65A", "assay": "EMSA", "details": "EMSA: 15 ng probe, 0.01-1.0 uM protein, 60 min; for MHQ tests protein diluted to 0.6 uM in 10 mM Tris-HCl pH 7.5 and treated with 0.5-100 mM MHQ for 30 min at …"}, "[15]": {"system": "T15, SaMhqR S66A S66A (Staphylococcus aureus COL), ORF:0a4449b0", "T15 sequence": "T1 sequence with E63A, S66A", "assay": "EMSA", "details": "EMSA: 15 ng probe, 0.01-1.0 uM protein, 60 min; for MHQ tests protein diluted to 0.6 uM in 10 mM Tris-HCl pH 7.5 and treated with 0.5-100 mM MHQ for 30 min at …"}, "[16]": {"system": "T16, SaMhqR S68A S68A (Staphylococcus aureus COL), ORF:0a4449b0", "T16 sequence": "T1 sequence with E63A, S68A", "assay": "EMSA", "details": "EMSA: 15 ng probe, 0.01-1.0 uM protein, 60 min; for MHQ tests protein diluted to 0.6 uM in 10 mM Tris-HCl pH 7.5 and treated with 0.5-100 mM MHQ for 30 min at …"}, "[17]": {"system": "T17, SaMhqR V70A V70A (Staphylococcus aureus COL), ORF:0a4449b0", "T17 sequence": "T1 sequence with E63A, V70A", "assay": "EMSA", "details": "EMSA: 15 ng probe, 0.01-1.0 uM protein, 60 min; for MHQ tests protein diluted to 0.6 uM in 10 mM Tris-HCl pH 7.5 and treated with 0.5-100 mM MHQ for 30 min at …"}, "[18]": {"system": "T18, SaMhqR V91A V91A (Staphylococcus aureus COL), ORF:0a4449b0", "T18 sequence": "T1 sequence with E63A, V91A", "assay": "EMSA", "details": "EMSA: 15 ng probe, 0.01-1.0 uM protein, 60 min; for MHQ tests protein diluted to 0.6 uM in 10 mM Tris-HCl pH 7.5 and treated with 0.5-100 mM MHQ for 30 min at …"}, "[19]": {"system": "T19, SaMhqR WT (Staphylococcus aureus COL), ORF:0a4449b0", "T19 sequence": "T1 sequence with E63A", "assay": "EMSA", "details": "EMSA: 15 ng probe, 0.01-1.0 uM protein, 60 min; for MHQ tests protein diluted to 0.6 uM in 10 mM Tris-HCl pH 7.5 and treated with 0.5-100 mM MHQ for 30 min at …"}, "[20]": {"system": "T20, SaMhqR Y69A Y69A (Staphylococcus aureus COL), ORF:0a4449b0", "T20 sequence": "T1 sequence with E63A, Y69A", "assay": "EMSA", "details": "EMSA: 15 ng probe, 0.01-1.0 uM protein, 60 min; for MHQ tests protein diluted to 0.6 uM in 10 mM Tris-HCl pH 7.5 and treated with 0.5-100 mM MHQ for 30 min at …"}, "[21]": {"system": "T21, SaMhqR Y92A Y92A (Staphylococcus aureus COL), ORF:0a4449b0", "T21 sequence": "T1 sequence with E63A, Y92A", "assay": "EMSA", "details": "EMSA: 15 ng probe, 0.01-1.0 uM protein, 60 min; for MHQ tests protein diluted to 0.6 uM in 10 mM Tris-HCl pH 7.5 and treated with 0.5-100 mM MHQ for 30 min at …"}, "[22]": {"target": "MarR-type repressor MhqR of Staphylococcus aureus (SaMhqR), wild type, C-terminally His-tagged (Staphylococcus aureus (COL))", "assay": "SEC-MALS; Superdex 200 Increase 10/300, HEPES buffer (20 mM HEPES, 20 mM MgCl2, 200 mM NaCl, 20 mM KCl)"}}, "note": "Positions count from the first letter of the chain named.", "data": [{"substance": "ACATATCAACTCCTATCATGATTGATTATAGTATTTCCCTATTCTATTTTAACTTAAACGAAGTCAAAGGTGCATGACAGTCATGTGACGACATTGCCACATCTATGTAGTCGTTTTTATTAAGCACAGTTTGAAATGAAGATGAAAACACGTATCTTGACATTAAATCTATTCAGTTATATAATTTATCTCGAAATCGAAATAAAATAAAAAAGTTGGTGATCATATGGATCGAACG (double strand) [mhqRED promoter probe]", "values": [{"measurement": "binding", "setting": "[1]", "result": "binds more weakly"}, {"measurement": "binding", "setting": "[2]", "result": "binds more weakly"}, {"measurement": "binding", "setting": "[3]", "result": "binds more weakly"}, {"measurement": "binding", "setting": "[4]", "result": "binds"}, {"measurement": "binding", "setting": "[5]", "result": "no binding"}, {"measurement": "binding", "setting": "[6]", "result": "binds more weakly"}, {"measurement": "binding", "setting": "[7]", "result": "binds more weakly"}, {"measurement": "binding", "setting": "[8]", "result": "binds more weakly"}, {"measurement": "binding", "setting": "[9]", "result": "binds more weakly"}, {"measurement": "binding", "setting": "[10]", "result": "binds more weakly"}, {"measurement": "binding", "setting": "[11]", "result": "binds more weakly"}, {"measurement": "binding", "setting": "[12]", "result": "binds more weakly"}, {"measurement": "binding", "setting": "[13]", "result": "binds"}, {"measurement": "binding", "setting": "[14]", "result": "binds more weakly"}, {"measurement": "binding", "setting": "[15]", "result": "binds more weakly"}, {"measurement": "binding", "setting": "[16]", "result": "binds more weakly"}, {"measurement": "binding", "setting": "[17]", "result": "binds more weakly"}, {"measurement": "binding", "setting": "[18]", "result": "binds more weakly"}, {"measurement": "binding", "setting": "[19]", "result": "binds"}, {"measurement": "binding", "setting": "[20]", "result": "binds more weakly"}, {"measurement": "binding", "setting": "[21]", "result": "binds more weakly"}]}, {"substance": "MarR-type repressor MhqR of Staphylococcus aureus (SaMhqR), wild type, C-terminally His-tagged (natural protein)", "values": [{"measurement": "stoichiometry N", "setting": "[22]", "result": 2}]}]}
